Source: US20230399384A1 (University of Texas, published 2023)
Read-outs that look alike come from different tables or passages of the source.

Key:
[1] = molecular target: T1, sCoV-RBD (Fc-tagged RBD of SARS-CoV S protein) (SARS-CoV; human, UniProt P59594 306-527)
S protein of SARS-CoV = S protein of SARS-CoV (SARS-CoV, UniProt P59594 14-1195)
[2] = molecular target: trimeric prefusion S protein of SARS-CoV-2 (SARS-CoV-2, UniProt P0DTC2 14-1208)
[3] = molecular target: T2, sCoV2-RBD (Fc-tagged RBD of SARS-CoV-2 S protein) (SARS-CoV-2; human, UniProt P0DTC2 319-541)
[4] = molecular target: T1, sCoV-RBD (Fc-tagged RBD of SARS-CoV S …); assay: BLI (Octet) blocking of ACE2 binding to sCoV-RBD
S protein of MERS-CoV = molecular target: T3, S protein of MERS-CoV (MERS-CoV, UniProt K9N5Q8 18-1296); assay: BLI kinetic binding (FIG. 28D)
T3 sequence: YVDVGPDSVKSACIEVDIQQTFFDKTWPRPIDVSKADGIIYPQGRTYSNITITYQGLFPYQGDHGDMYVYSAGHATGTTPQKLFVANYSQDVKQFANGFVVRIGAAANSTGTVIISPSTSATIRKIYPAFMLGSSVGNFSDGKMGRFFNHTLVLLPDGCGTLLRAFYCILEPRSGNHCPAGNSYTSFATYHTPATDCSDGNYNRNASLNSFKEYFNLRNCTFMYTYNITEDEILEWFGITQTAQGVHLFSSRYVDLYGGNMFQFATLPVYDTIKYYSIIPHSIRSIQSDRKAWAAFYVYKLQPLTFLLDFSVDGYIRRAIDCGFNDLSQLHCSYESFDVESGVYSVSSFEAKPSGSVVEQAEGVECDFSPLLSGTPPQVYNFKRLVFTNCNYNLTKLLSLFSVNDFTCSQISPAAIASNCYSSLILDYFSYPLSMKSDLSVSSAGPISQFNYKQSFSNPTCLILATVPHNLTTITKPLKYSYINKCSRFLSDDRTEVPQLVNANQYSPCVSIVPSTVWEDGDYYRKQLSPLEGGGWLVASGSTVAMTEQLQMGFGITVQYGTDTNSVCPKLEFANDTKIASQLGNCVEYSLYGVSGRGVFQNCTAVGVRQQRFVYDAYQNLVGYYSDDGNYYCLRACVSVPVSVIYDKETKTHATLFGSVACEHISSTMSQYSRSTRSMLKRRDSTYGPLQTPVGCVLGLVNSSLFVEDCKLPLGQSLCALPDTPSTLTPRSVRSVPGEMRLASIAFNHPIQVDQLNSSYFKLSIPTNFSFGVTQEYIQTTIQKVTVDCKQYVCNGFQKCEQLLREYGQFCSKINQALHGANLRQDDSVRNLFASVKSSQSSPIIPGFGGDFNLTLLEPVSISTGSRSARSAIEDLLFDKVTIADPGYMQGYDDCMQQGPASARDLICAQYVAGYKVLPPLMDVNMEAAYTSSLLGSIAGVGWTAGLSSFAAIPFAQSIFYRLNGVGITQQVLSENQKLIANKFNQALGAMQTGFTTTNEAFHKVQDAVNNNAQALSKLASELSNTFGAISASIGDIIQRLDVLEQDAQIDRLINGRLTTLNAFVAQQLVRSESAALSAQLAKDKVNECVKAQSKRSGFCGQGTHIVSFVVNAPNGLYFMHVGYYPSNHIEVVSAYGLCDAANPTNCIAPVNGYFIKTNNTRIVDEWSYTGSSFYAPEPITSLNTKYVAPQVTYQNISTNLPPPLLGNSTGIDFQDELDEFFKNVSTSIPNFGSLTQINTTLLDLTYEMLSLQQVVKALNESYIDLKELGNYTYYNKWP

[5] = molecular target: T2, sCoV2-RBD (Fc-tagged RBD of SARS-CoV-2 …); assay: ELISA titration on coated sCoV2-RBD
[6] = molecular target: SARS-CoV-2 S protein on live SARS-CoV-2-mNG reporter virus (SARS-CoV-2, UniProt P0DTC2 14-1273); assay: cell-based or functional assay
[7] = molecular target: T2, sCoV2-RBD (Fc-tagged RBD of SARS-CoV-2 …); assay: BLI (Octet) blocking of ACE2 binding to captured sCoV2-RBD

B1: CoV2-12 (antibody, V domains shown)
VH: QVQLVESGGGVVQPGRSLRLSCVASGFTFSSYAMQWVRQAPGKGLEYVAVVSDDGNMKFYADSVKGRFTISRDNSRNTVSLQMNSLGVEDTAVYYCARENYFWSGSIGGLDYWGQGTLVSVSS
VL: not shown
EC50 [1]: 3.51 nM
Kd (S protein of SARS-CoV): 9.95 nM
Kd [2]: 10.7 nM
EC50 [3]: 0.89 nM
IC50 [4]: 1.71 µg/mL
binding result (S protein of MERS-CoV): no binding
EC50 [5]: 2.11 nM
NC50 (neutralisation of reporter SARS-CoV-2, Vero E6 cells) [6]: 18.2 µg/mL
IC50 [7]: 2.13 µg/mL
